In the supplement of paper PMC10126150:
± gives the standard deviation of the averaged measurements.

System: ATP
Assay: switch fluorescence ratio, 500 uM ATP over buffer (Cy3 cluster intensity, sum of 5 cycles each) (fold (ratio)); higher = stronger signal-on switching upon ATP binding; sequences stand for … in TCGTCGGCAGCGTCAGATGTGTATAAGAGACAGTTTTTTTTTTTTTTTTTTTTTTTTT…TC
Settings: aptamer strand: ATP DNA aptamer (quencher-CACCTGGGGGAGTATTGCGGAGGAAGG + anchor), 100 nM annealed; ATP concentration: 500 uM
Outline: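 Clusters with intensities outside 100-1000 RFU were excluded. The remaining Cy3-labelled switching-strand clusters on a modified Illumina MiSeq flow-cell had been annealed to 100 nM quencher-labelled ATP aptamer and imaged in selection buffer, then after 15 min with 500 uM ATP at 22 °C, for five cycles separated by NaOH stripping and re-annealing. The fluorescence ratio, averaged per switch-domain sequence, is each cluster's summed target-cycle Cy3 intensity over its summed buffer-cycle Cy3 intensity.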
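Note: ATP exposure 15 min at 22 °C before imaging.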

TTCCCACTAC
switch fluorescence ratio: 2.63 ± 0.086

TTCCCACTAT
switch fluorescence ratio: 1.023 ± 0.0078

TTCCCAGATG
switch fluorescence ratio: 1.81 ± 0.41

TTCCCATGTT
switch fluorescence ratio: 1 ± 0.012

TTCCCGCGTA
switch fluorescence ratio: 1.19 ± 0.13

TTCCCGCTGT
switch fluorescence ratio: 1.75 ± 0.023

TTCCCGTCAG
switch fluorescence ratio: 1.022 ± 0.0017

TTCCCTTTGG
switch fluorescence ratio: 1.01 ± 0.041

TTCCCTTTTT
switch fluorescence ratio: 1.03 ± 0.019

TTCCGACTCT
switch fluorescence ratio: 1.31 ± 0.014

TTCCGACTTA
switch fluorescence ratio: 1.14 ± 0.19

TTCCGGCACT
switch fluorescence ratio: 1.09 ± 0.029

TTCCGGGATC
switch fluorescence ratio: 1.91 ± 0.092

TTCCGGGGCC
switch fluorescence ratio: 0.9978 ± 0.0032

TTCCGGGGGA
switch fluorescence ratio: 1.08 ± 0.11

TTCCGGGGTT
switch fluorescence ratio: 1.03 ± 0.022

TTCCGGGTTT
switch fluorescence ratio: 1.2 ± 0.31

TTCCGGTAAT
switch fluorescence ratio: 1.23 ± 0.033

TTCCGTATGA
switch fluorescence ratio: 1.05 ± 0.043

TTCCGTCACG
switch fluorescence ratio: 1.08 ± 0.043

TTCCGTTGTG
switch fluorescence ratio: 0.98 ± 0.049

TTCCTAATTG
switch fluorescence ratio: 1.01 ± 0.012

TTCCTACAAG
switch fluorescence ratio: 1.06 ± 0.014

TTCCTAGTCT
switch fluorescence ratio: 1.27 ± 0.19

TTCCTTAGTC
switch fluorescence ratio: 1.019 ± 0.0045

TTCCTTGGGT
switch fluorescence ratio: 1.01 ± 0.017

TTCCTTGGTA
switch fluorescence ratio: 1.04 ± 0.038

TTCCTTTCAA
switch fluorescence ratio: 1.228 ± 0.012

TTCCTTTTTA
switch fluorescence ratio: 1.02 ± 0.015

TTCCTTTTTT
switch fluorescence ratio: 1.03 ± 0.065

TTCGAACACG
switch fluorescence ratio: 0.994 ± 0.028

TTCGAACTCG
switch fluorescence ratio: 1.011 ± 0.0043

TTCGAAGCAC
switch fluorescence ratio: 2.74 ± 1.7

TTCGAAGTTG
switch fluorescence ratio: 0.999 ± 0.034

TTCGAATGGT
switch fluorescence ratio: 0.9724 ± 0.0062

TTCGAATTAG
switch fluorescence ratio: 2.28 ± 1.7

TTCGACCGTG
switch fluorescence ratio: 0.997 ± 0.033

TTCGAGACGG
switch fluorescence ratio: 0.98 ± 0.025

TTCGAGAGTA
switch fluorescence ratio: 1.05 ± 0.1

TTCGAGAGTG
switch fluorescence ratio: 0.945 ± 0.054

TTCGAGGAGA
switch fluorescence ratio: 1.01 ± 0.011

TTCGAGGAGG
switch fluorescence ratio: 0.981 ± 0.017

TTCGAGTATT
switch fluorescence ratio: 0.99 ± 0.019

TTCGAGTCTT
switch fluorescence ratio: 0.9742 ± 0.0083

TTCGAGTTGT
switch fluorescence ratio: 1.006 ± 0.0025

TTCGATACTT
switch fluorescence ratio: 0.9922 ± 0.0059

TTCGATTTGG
switch fluorescence ratio: 1.03 ± 0.0072

TTCGCGGTCT
switch fluorescence ratio: 1.11 ± 0.13

TTCGCGTTAG
switch fluorescence ratio: 1.23 ± 0.29

TTCGGAATTT
switch fluorescence ratio: 0.9882 ± 0.0083

TTCGGAGGGT
switch fluorescence ratio: 0.9899 ± 0.0088

TTCGGAGTTA
switch fluorescence ratio: 1.09 ± 0.12

TTCGGCACGT
switch fluorescence ratio: 1.01 ± 0.021

TTCGGCAGTG
switch fluorescence ratio: 1.022 ± 0.0079

TTCGGCCCGA
switch fluorescence ratio: 1.01 ± 0.039

TTCGGCCGGT
switch fluorescence ratio: 0.998 ± 0.011

TTCGGCGGGT
switch fluorescence ratio: 1.03 ± 0.025

TTCGGGAATT
switch fluorescence ratio: 1.1 ± 0.11

TTCGGGAGGT
switch fluorescence ratio: 1.05 ± 0.13

TTCGGGATAG
switch fluorescence ratio: 1.07 ± 0.1

TTCGGGCCGG
switch fluorescence ratio: 1.01 ± 0.033

TTCGGGCGAA
switch fluorescence ratio: 1 ± 0.029

TTCGGGCGTC
switch fluorescence ratio: 1.01 ± 0.039

TTCGGGCGTG
switch fluorescence ratio: 0.994 ± 0.024

TTCGGGGGAA
switch fluorescence ratio: 0.993 ± 0.075

TTCGGGGGAT
switch fluorescence ratio: 1.01 ± 0.02

TTCGGGGGCT
switch fluorescence ratio: 1.01 ± 0.071

TTCGGGGTCC
switch fluorescence ratio: 0.99 ± 0.028

TTCGGGGTCT
switch fluorescence ratio: 1.014 ± 0.0098

TTCGGGTAAG
switch fluorescence ratio: 0.987 ± 0.043

TTCGGGTATG
switch fluorescence ratio: 1.01 ± 0.013

TTCGGGTCGG
switch fluorescence ratio: 0.991 ± 0.026

TTCGGGTGCC
switch fluorescence ratio: 1.03 ± 0.057

TTCGGGTTGG
switch fluorescence ratio: 1.02 ± 0.015

TTCGGGTTTA
switch fluorescence ratio: 0.994 ± 0.055

TTCGGTCTAA
switch fluorescence ratio: 0.979 ± 0.023

TTCGGTTAGC
switch fluorescence ratio: 1.05 ± 0.041

TTCGGTTCGT
switch fluorescence ratio: 0.98 ± 0.066

TTCGGTTGTA
switch fluorescence ratio: 1.009 ± 0.0067

TTCGTACGGG
switch fluorescence ratio: 1.03 ± 0.021

TTCGTAGTTG
switch fluorescence ratio: 0.992 ± 0.054

TTCGTATAAG
switch fluorescence ratio: 0.9936 ± 0.0076

TTCGTATATT
switch fluorescence ratio: 1.02 ± 0.017

TTCGTATCGG
switch fluorescence ratio: 0.978 ± 0.012

TTCGTCAACA
switch fluorescence ratio: 1.03 ± 0.046

TTCGTCAGTT
switch fluorescence ratio: 0.9992 ± 0.0073

TTCGTCTGGG
switch fluorescence ratio: 1.03 ± 0.065

TTCGTGACTT
switch fluorescence ratio: 1.02 ± 0.025

TTCGTGCCAG
switch fluorescence ratio: 1.01 ± 0.043

TTCGTGCTTT
switch fluorescence ratio: 0.995 ± 0.035

TTCGTGGTGA
switch fluorescence ratio: 1.02 ± 0.019

TTCGTGTCAG
switch fluorescence ratio: 0.995 ± 0.023

TTCGTTAAGC
switch fluorescence ratio: 1.07 ± 0.1

TTCGTTATTG
switch fluorescence ratio: 1.02 ± 0.026

TTCGTTCCAT
switch fluorescence ratio: 0.986 ± 0.012

TTCGTTCGGG
switch fluorescence ratio: 0.992 ± 0.041

TTCGTTCTTG
switch fluorescence ratio: 0.9641 ± 0.0076

TTCGTTGATG
switch fluorescence ratio: 0.985 ± 0.016

TTCGTTGGTG
switch fluorescence ratio: 0.969 ± 0.035

TTCGTTGTAA
switch fluorescence ratio: 0.98683 ± 0.00096

TTCGTTGTGC
switch fluorescence ratio: 1.01 ± 0.02

TTCGTTTCGA
switch fluorescence ratio: 0.965 ± 0.042

TTCGTTTCGG
switch fluorescence ratio: 1.01 ± 0.037

TTCGTTTGCA
switch fluorescence ratio: 1.38 ± 0.64

TTCTACAGTA
switch fluorescence ratio: 1.036 ± 0.0059

TTCTACGGTC
switch fluorescence ratio: 1.01 ± 0.03

TTCTAGGGGG
switch fluorescence ratio: 1.02 ± 0.056

TTCTAGGTCT
switch fluorescence ratio: 1.02 ± 0.037

TTCTAGTAA
switch fluorescence ratio: 0.998 ± 0.021

TTCTATATTG
switch fluorescence ratio: 0.996 ± 0.023

TTCTATGGCA
switch fluorescence ratio: 0.984 ± 0.043

TTCTATTACC
switch fluorescence ratio: 1.01 ± 0.032

TTCTATTTCG
switch fluorescence ratio: 1 ± 0.019

TTCTCAGAGG
switch fluorescence ratio: 1.01 ± 0.029

TTCTCAGCAA
switch fluorescence ratio: 2.43 ± 0.64

TTCTCATTTT
switch fluorescence ratio: 1.01 ± 0.029

TTCTCTATGT
switch fluorescence ratio: 1.01 ± 0.035

TTCTCTTTTT
switch fluorescence ratio: 1.02 ± 0.036

TTCTGAGCTT
switch fluorescence ratio: 1.07 ± 0.025

TTCTGCGGGG
switch fluorescence ratio: 1.04 ± 0.046

TTCTGCTTAG
switch fluorescence ratio: 2.04 ± 0.039

TTCTGGATGT
switch fluorescence ratio: 0.956 ± 0.023

TTCTGGTTGT
switch fluorescence ratio: 0.987 ± 0.046

TTCTGGTTTG
switch fluorescence ratio: 0.975 ± 0.043

TTCTGGTTTT
switch fluorescence ratio: 0.9727 ± 0.0026

TTCTGTGGGA
switch fluorescence ratio: 1.002 ± 0.006

TTCTGTGGGT
switch fluorescence ratio: 0.955 ± 0.057

TTCTGTTAAC
switch fluorescence ratio: 1.01 ± 0.025

TTCTTAACAT
switch fluorescence ratio: 1.054 ± 0.01

TTCTTACTTT
switch fluorescence ratio: 1.48 ± 0.64

TTCTTATGAT
switch fluorescence ratio: 0.9721 ± 0.0011

TTCTTCACGG
switch fluorescence ratio: 1.04 ± 0.035

TTCTTCGGAT
switch fluorescence ratio: 1.09 ± 0.11

TTCTTTCGCG
switch fluorescence ratio: 0.9467 ± 0.0023

TTCTTTTTCG
switch fluorescence ratio: 0.973 ± 0.056

TTCTTTTTGA
switch fluorescence ratio: 1.43 ± 0.59

TTCTTTTTTT
switch fluorescence ratio: 1.01 ± 0.032

TTGAAAATGT
switch fluorescence ratio: 0.96 ± 0.0076

TTGAAAGGTG
switch fluorescence ratio: 1.29 ± 0.24

TTGAAAGTG
switch fluorescence ratio: 0.9785 ± 0.0043

TTGAAATAG
switch fluorescence ratio: 0.9957 ± 0.0097

TTGAAATAGG
switch fluorescence ratio: 1.03 ± 0.011

TTGAAATAGT
switch fluorescence ratio: 1.01 ± 0.024

TTGAAATTAA
switch fluorescence ratio: 1.01 ± 0.025

TTGAAATTTT
switch fluorescence ratio: 1.001 ± 0.0077

TTGAACGTGT
switch fluorescence ratio: 0.994 ± 0.042

TTGAAGGCGG
switch fluorescence ratio: 1.02 ± 0.024

TTGAAGGGTG
switch fluorescence ratio: 1.05 ± 0.11

TTGAAGGTGG
switch fluorescence ratio: 1.08 ± 0.12

TTGAATGGTC
switch fluorescence ratio: 0.979 ± 0.081

TTGAATTAGA
switch fluorescence ratio: 0.965 ± 0.025

TTGAATTTAG
switch fluorescence ratio: 0.986 ± 0.015

TTGAATTTGA
switch fluorescence ratio: 1 ± 0.028

TTGACACTGG
switch fluorescence ratio: 1.04 ± 0.02

TTGACAGTAA
switch fluorescence ratio: 1.08 ± 0.014

TTGACATCCC
switch fluorescence ratio: 1.07 ± 0.032

TTGACGAGGT
switch fluorescence ratio: 1.07 ± 0.078

TTGACGATGA
switch fluorescence ratio: 1.04 ± 0.025

TTGACGCGTG
switch fluorescence ratio: 0.982 ± 0.023

TTGACGGTGA
switch fluorescence ratio: 1.06 ± 0.033

TTGACTAAGG
switch fluorescence ratio: 1.01 ± 0.044

TTGACTATCG
switch fluorescence ratio: 1 ± 0.076

TTGACTTGTT
switch fluorescence ratio: 1.02 ± 0.068

TTGACTTTGG
switch fluorescence ratio: 0.959 ± 0.02

TTGAGAAAGG
switch fluorescence ratio: 1.02 ± 0.025

TTGAGAAAGT
switch fluorescence ratio: 1.47 ± 0.68

TTGAGAAGTT
switch fluorescence ratio: 1.01 ± 0.021

TTGAGAGGAT
switch fluorescence ratio: 0.972 ± 0.021

TTGAGAGTCT
switch fluorescence ratio: 1.01 ± 0.18

TTGAGATACG
switch fluorescence ratio: 1.001 ± 0.0057

TTGAGATCCT
switch fluorescence ratio: 1.027 ± 0.0084

TTGAGCCGGT
switch fluorescence ratio: 1 ± 0.045

TTGAGCGGGG
switch fluorescence ratio: 0.9876 ± 0.005

TTGAGGACAG
switch fluorescence ratio: 1.02 ± 0.025

TTGAGGATAG
switch fluorescence ratio: 0.987 ± 0.021

TTGAGGCCCG
switch fluorescence ratio: 0.9375 ± 0.0031

TTGAGGGAGA
switch fluorescence ratio: 1.02 ± 0.058

TTGAGGGCCT
switch fluorescence ratio: 0.979 ± 0.021

TTGAGGGGGA
switch fluorescence ratio: 1.01 ± 0.014

TTGAGGGGTG
switch fluorescence ratio: 0.996 ± 0.037

TTGAGGGTAT
switch fluorescence ratio: 0.998 ± 0.023

TTGAGGTTAT
switch fluorescence ratio: 1.02 ± 0.061

TTGAGGTTGG
switch fluorescence ratio: 1 ± 0.026

TTGAGTCAAT
switch fluorescence ratio: 1.044 ± 0.0078

TTGAGTGGGA
switch fluorescence ratio: 0.989 ± 0.02

TTGAGTGGGC
switch fluorescence ratio: 0.979 ± 0.031

TTGAGTTGGG
switch fluorescence ratio: 0.973 ± 0.041

TTGAGTTTAA
switch fluorescence ratio: 1.003 ± 0.0065

TTGATAAAAG
switch fluorescence ratio: 1.03 ± 0.08

TTGATAATAG
switch fluorescence ratio: 1 ± 0.024

TTGATAGACG
switch fluorescence ratio: 1.07 ± 0.042

TTGATAGTCG
switch fluorescence ratio: 0.969 ± 0.024

TTGATATCAT
switch fluorescence ratio: 0.97 ± 0.049

TTGATATGAC
switch fluorescence ratio: 1.014 ± 0.0094

TTGATCCAGC
switch fluorescence ratio: 0.9958 ± 0.0068

TTGATCGGGC
switch fluorescence ratio: 1.03 ± 0.052

TTGATGAACA
switch fluorescence ratio: 1 ± 0.024

TTGATGACGG
switch fluorescence ratio: 0.9872 ± 0.0016

TTGATGCTAT
switch fluorescence ratio: 1.32 ± 0.43

TTGATGGTGG
switch fluorescence ratio: 0.987 ± 0.056
